Results published in US20080102072A1.

What was measured:
[1] = biological target: human IFNAR1, membrane receptor on cells (U266 human myeloma cells; Hela and A549 cells in the functional assays) (human) (UniProt P17181); test: flow cytometry on U266 cells, F-mAb preincubated with competitor: 10 µg soluble wild type hIFNAR1-IgG
[2] = biological target: hIFNAR1 ECD-IgG fusion protein (immunoadhesin, pRK5 hIFNAR1-IgG clone 53.65), wild type (human); test: competitive radioimmunoprecipitation with 125I-hIFNAR1-IgG and unlabeled hIFNAR1-IgG, Scatchard analysis
[3] = biological target: human IFNAR1, membrane receptor on cells (U266 human myeloma cells; Hela and A549 cells in the functional assays) (human) (UniProt P17181); test: flow cytometry on U266 cells, fluoresceinated mAb 1 µg/100 µl, no soluble hIFNAR1
[4] = biological target: human IFNAR1, membrane receptor on cells (U266 human myeloma cells; Hela and A549 cells in the functional assays) (human) (UniProt P17181); test: flow cytometry on U266 cells, F-mAb preincubated with competitor: 10 µg soluble hIFNAR1-IgG Mutant #8 (291-298)
[5] = biological target: human IFNAR1, membrane receptor on cells (U266 human myeloma cells; Hela and A549 cells in the functional assays) (human) (UniProt P17181); test: flow cytometry on U266 cells, F-mAb preincubated with competitor: 10 µg soluble hIFNAR1-IgG Mutant #7 (244-249)
[6] = biological target: IFNAR1-IgG multiple alanine mutant 4, residues 103-111 (… to …) (human); test: capture ELISA, mutant IFNAR1-IgG captured by goat anti-hIgG-Fc, mAb 10 µg/ml; OD as % of wild type IFNAR1-IgG
[7] = biological target: IFNAR1-IgG multiple alanine mutant 10, residues 383-388 (DEKLNK to AAALNA) (human); test: as above
Chain of IFNAR1-IgG multiple alanine mutant 10, residues 383-388 (DEKLNK to AAALNA) (human) (chain, as listed by the source mutant limits assumed): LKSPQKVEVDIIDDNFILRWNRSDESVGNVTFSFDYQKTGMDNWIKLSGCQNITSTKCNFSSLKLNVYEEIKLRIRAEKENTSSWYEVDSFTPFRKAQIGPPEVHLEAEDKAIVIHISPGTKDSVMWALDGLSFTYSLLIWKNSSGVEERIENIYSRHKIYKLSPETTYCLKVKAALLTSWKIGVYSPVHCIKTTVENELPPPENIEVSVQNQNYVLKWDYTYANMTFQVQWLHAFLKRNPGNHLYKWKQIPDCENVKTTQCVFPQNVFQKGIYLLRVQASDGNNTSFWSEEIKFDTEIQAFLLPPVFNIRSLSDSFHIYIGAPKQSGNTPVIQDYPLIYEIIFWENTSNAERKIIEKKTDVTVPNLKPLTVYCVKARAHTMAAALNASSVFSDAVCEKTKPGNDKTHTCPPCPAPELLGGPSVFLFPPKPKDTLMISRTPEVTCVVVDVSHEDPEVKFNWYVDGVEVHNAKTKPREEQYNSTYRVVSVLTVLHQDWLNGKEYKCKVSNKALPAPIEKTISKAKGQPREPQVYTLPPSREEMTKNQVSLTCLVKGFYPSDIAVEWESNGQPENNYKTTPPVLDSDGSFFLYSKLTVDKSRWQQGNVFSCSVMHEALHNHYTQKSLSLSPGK

[8] = biological target: IFNAR1-IgG multiple alanine mutant 3, residues 76-80 (RAEKE to AAAAA) (human); test: as above
[9] = biological target: IFNAR1-IgG multiple alanine mutant 8, residues 291-298 (EEIKFDTE to AAIAFATA) (human); test: as above
[10] = biological target: IFNAR1-IgG multiple alanine mutant 6, residues 157-162 (RHKIYK to AAAIYA) (human); test: as above
Chain of IFNAR1-IgG multiple alanine mutant 6, residues 157-162 (RHKIYK to AAAIYA) (human) (chain, as listed by the source mutant limits assumed): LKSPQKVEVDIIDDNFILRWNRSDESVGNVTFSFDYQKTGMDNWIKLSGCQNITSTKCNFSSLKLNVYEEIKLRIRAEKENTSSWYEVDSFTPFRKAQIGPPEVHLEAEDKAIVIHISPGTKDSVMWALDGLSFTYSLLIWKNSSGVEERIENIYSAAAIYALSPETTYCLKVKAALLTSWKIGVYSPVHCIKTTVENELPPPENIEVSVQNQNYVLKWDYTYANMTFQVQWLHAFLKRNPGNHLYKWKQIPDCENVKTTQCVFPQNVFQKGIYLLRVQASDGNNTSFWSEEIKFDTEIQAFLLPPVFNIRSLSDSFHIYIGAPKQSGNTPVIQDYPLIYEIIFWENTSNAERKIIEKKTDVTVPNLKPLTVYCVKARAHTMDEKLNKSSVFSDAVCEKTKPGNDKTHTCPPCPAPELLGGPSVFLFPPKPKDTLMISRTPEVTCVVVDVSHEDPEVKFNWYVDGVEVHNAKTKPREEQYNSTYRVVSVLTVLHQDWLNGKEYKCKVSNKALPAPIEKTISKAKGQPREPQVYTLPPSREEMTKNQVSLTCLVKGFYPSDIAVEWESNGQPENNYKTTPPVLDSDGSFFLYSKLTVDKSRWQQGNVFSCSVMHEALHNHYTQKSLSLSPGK

[11] = biological target: IFNAR1-IgG multiple alanine mutant 5, residues 148-152 (EERIE to AAAIA) (human); test: as above
[12] = biological target: IFNAR1-IgG multiple alanine mutant 9, residues 352-359 (ERKIIEKK to AAAIIAAA) (human); test: as above
[13] = biological target: IFNAR1-IgG multiple alanine mutant 2, residues 69-74 (EEIKLR to AAIALA) (human); test: as above
[14] = biological target: IFNAR1-IgG multiple alanine mutant 7, residues 244-249 (HLYKWK to ALYAWA) (human); test: as above
[15] = biological target: IFNAR1-IgG multiple alanine mutant 1, residues 19-25 (RWNRSDE to AWNASAA) (human); test: as above
[16] = biological target: human IFNAR1, membrane receptor on cells (U266 human myeloma cells; Hela and A549 cells in the functional assays) (human) (UniProt P17181); test: cell-based or functional assay
[17] = biological target: IFNAR1-IgG single alanine mutant R74A (human); test: capture ELISA, single alanine mutant IFNAR1-IgG captured by goat anti-hIgG-Fc; OD as % of wild type IFNAR1-IgG
[18] = biological target: IFNAR1-IgG single alanine mutant K72A (human); test: as above
Chain of IFNAR1-IgG single alanine mutant K72A (human) (chain, as listed by the source K72A K72A limits assumed): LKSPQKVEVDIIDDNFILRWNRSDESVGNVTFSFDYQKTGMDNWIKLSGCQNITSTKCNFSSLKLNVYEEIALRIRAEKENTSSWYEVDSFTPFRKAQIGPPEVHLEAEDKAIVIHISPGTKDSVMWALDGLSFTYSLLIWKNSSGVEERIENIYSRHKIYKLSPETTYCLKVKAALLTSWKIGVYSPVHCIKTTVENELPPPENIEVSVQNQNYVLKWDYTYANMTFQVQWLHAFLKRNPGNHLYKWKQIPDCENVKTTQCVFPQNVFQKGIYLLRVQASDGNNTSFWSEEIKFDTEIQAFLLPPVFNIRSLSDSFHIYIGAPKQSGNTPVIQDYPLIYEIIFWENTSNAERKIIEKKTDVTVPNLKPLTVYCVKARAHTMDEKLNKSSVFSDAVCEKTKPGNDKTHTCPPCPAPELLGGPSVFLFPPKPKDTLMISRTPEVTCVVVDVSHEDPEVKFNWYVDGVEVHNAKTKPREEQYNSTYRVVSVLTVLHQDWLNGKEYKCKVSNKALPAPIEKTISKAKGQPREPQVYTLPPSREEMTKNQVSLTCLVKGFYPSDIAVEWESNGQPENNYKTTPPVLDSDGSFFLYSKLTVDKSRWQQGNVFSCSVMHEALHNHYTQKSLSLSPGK

[19] = biological target: IFNAR1-IgG single alanine mutant K247A (human); test: as above
[20] = biological target: IFNAR1-IgG single alanine mutant E291A (human); test: as above
Chain of IFNAR1-IgG single alanine mutant E291A (human) (chain, as listed by the source E291A E291A limits assumed): as the sequence (chain, as listed by the source K72A K72A limits assumed) above, with A72K, E291A counted along it

[21] = biological target: IFNAR1-IgG single alanine mutant E292A (human); test: as above
Chain of IFNAR1-IgG single alanine mutant E292A (human) (chain, as listed by the source E292A E292A limits assumed): as the sequence (chain, as listed by the source K72A K72A limits assumed) above, with A72K, E292A counted along it

[22] = biological target: IFNAR1-IgG single alanine mutant H244A (human); test: as above
Chain of IFNAR1-IgG single alanine mutant H244A (human) (chain, as listed by the source H244A H244A limits assumed): as the sequence (chain, as listed by the source K72A K72A limits assumed) above, with A72K, H244A counted along it

[23] = biological target: IFNAR1-IgG single alanine mutant E69A (human); test: as above
Chain of IFNAR1-IgG single alanine mutant E69A (human) (chain, as listed by the source E69A E69A limits assumed): as the sequence (chain, as listed by the source K72A K72A limits assumed) above, with E69A, A72K counted along it

[24] = biological target: IFNAR1-IgG single alanine mutant K249A (human); test: as above
[25] = biological target: IFNAR1-IgG single alanine mutant D296A (human); test: as above
[26] = biological target: IFNAR1-IgG single alanine mutant E298A (human); test: as above
Chain of IFNAR1-IgG single alanine mutant E298A (human) (chain, as listed by the source E298A E298A limits assumed): as the sequence (chain, as listed by the source K72A K72A limits assumed) above, with A72K, E298A counted along it

[27] = biological target: IFNAR1-IgG single alanine mutant K294A (human); test: as above
[28] = biological target: IFNAR1-IgG single alanine mutant E70A (human); test: as above

Kd [2] [nM]	% Wild type binding of mAbs [6] [%]	% Wild type binding of mAbs [7] [%]	% Wild type binding of mAbs [8] [%]	% Wild type binding of mAbs [9] [%]	% Wild type binding of mAbs [10] [%]	% Wild type binding of mAbs [11] [%]	% Wild type binding of mAbs [12] [%]	% Wild type binding of mAbs [13] [%]	% Wild type binding of mAbs [14] [%]	% Wild type binding of mAbs [15] [%]	EC50 of mAb neutralizing the anti-viral cytopathic effect of 10 units/ml IFNα1 on A549 cells (EMC virus) [16] [µg/mL]	EC50 of mAb neutralizing the anti-viral cytopathic effect of 10 units/ml IFNα2/1 on A549 cells (EMC virus) [16] [µg/mL]	EC50 of mAb neutralizing the anti-viral cytopathic effect of 10 units/ml IFNα2 on A549 cells (EMC virus) [16] [µg/mL]	EC50 of mAb neutralizing the anti-viral cytopathic effect of 10 units/ml IFNα5 on A549 cells (EMC virus) [16] [µg/mL]	EC50 of mAb neutralizing the anti-viral cytopathic effect of 10 units/ml IFNα8 on A549 cells (EMC virus) [16] [µg/mL]	EC50 of mAb neutralizing the anti-viral cytopathic effect of 10 units/ml IFNβ on A549 cells (EMC virus) [16] [µg/mL]	% Wild type binding of mAbs [17] [%]	% Wild type binding of mAbs [18] [%]	% Wild type binding of mAbs [19] [%]	Substance	further results
0.066	66	105	97	6	84	87	105	21	0	101	3	3	1	1	1	> 30	57	90	74	anti-hIFNAR1 monoclonal antibody 2E1 (hybridoma ATCC HB 12133)	Mean Fluorescence Intensity [1]: 2.83; Mean Fluorescence Intensity [3]: 7.6; Mean Fluorescence Intensity [4]: 7.65; Mean Fluorescence Intensity [5]: 7.82; % Wild type binding of mAbs [20]: 7%; % Wild type binding of mAbs [21]: 34%; % Wild type binding of mAbs [22]: 92%; % Wild type binding of mAbs [23]: 72%; % Wild type binding of mAbs [24]: 5%; % Wild type binding of mAbs [25]: 5%; % Wild type binding of mAbs [26]: 36%; % Wild type binding of mAbs [27]: 54%; % Wild type binding of mAbs [28]: 81%
0.097	33	116	69	0	77	43	81	18	77	84	> 30	> 30	> 30	> 30	> 30	> 30	53	89	66	anti-hIFNAR1 monoclonal antibody 2E8 (hybridoma ATCC HB 12130)	Mean Fluorescence Intensity [1]: 3.16; Mean Fluorescence Intensity [3]: 7.96; Mean Fluorescence Intensity [4]: 7.6; Mean Fluorescence Intensity [5]: 3.27; % Wild type binding of mAbs [20]: 3%; % Wild type binding of mAbs [21]: 29%; % Wild type binding of mAbs [22]: 96%; % Wild type binding of mAbs [23]: 72%; % Wild type binding of mAbs [24]: 54%; % Wild type binding of mAbs [25]: 3%; % Wild type binding of mAbs [26]: 31%; % Wild type binding of mAbs [27]: 54%; % Wild type binding of mAbs [28]: 80%
3.12	39	93	48	64	90	68	101	0	105	77	> 30	> 30	> 30	> 30	> 30	> 30	0	89	88	anti-hIFNAR1 monoclonal antibody 2H6 (hybridoma ATCC HB 12131)	% Wild type binding of mAbs [20]: 49%; % Wild type binding of mAbs [21]: 55%; % Wild type binding of mAbs [22]: 94%; % Wild type binding of mAbs [23]: 64%; % Wild type binding of mAbs [24]: 69%; % Wild type binding of mAbs [25]: 49%; % Wild type binding of mAbs [26]: 53%; % Wild type binding of mAbs [27]: 65%; % Wild type binding of mAbs [28]: 79%
0.174	34	83	109	75	100	80	81	67	110	110	> 30	> 30	> 30	> 30	> 30	> 30	84	110	93	anti-hIFNAR1 monoclonal antibody 5A8 (hybridoma ATCC HB 12129)	% Wild type binding of mAbs [20]: 61%; % Wild type binding of mAbs [21]: 66%; % Wild type binding of mAbs [22]: 99%; % Wild type binding of mAbs [23]: 91%; % Wild type binding of mAbs [24]: 71%; % Wild type binding of mAbs [25]: 70%; % Wild type binding of mAbs [26]: 72%; % Wild type binding of mAbs [27]: 82%; % Wild type binding of mAbs [28]: 83%
